The values below come from US20230233650A1, “NOVEL FATTY ACID MODIFIED UROCORTIN 2 DERIVATIVES AND THE USES THEREOF” (Novo Nordisk A/S, priority 2021, published 2023).

Numbered stars: 1 amine (or outer) side, 2 acyl side, 3 side chain; on linkers, the order of the positions; unused ones are H or OH. Side chains are listed from the residue outwards. Ends that are not written are not given here. * marks the point of attachment. C20 diacid = O=C(O)CCCCCCCCCCCCCCCCCCC(=O)*; γGlu = O=C(O)[C@H](CCC(=O)[*:2])N[*:1]; AEEA = NCCOCCOCC(=O)O Some results are limits rather than exact numbers.

The target in assay [1] is T1, Human CRF1 receptor (Corticotropin-Releasing Factor receptor 1) (human, UniProt P34998 24-415).
T1 construct: whole, on cells; also called type 1 CRF receptor
T1 sequence (looked up): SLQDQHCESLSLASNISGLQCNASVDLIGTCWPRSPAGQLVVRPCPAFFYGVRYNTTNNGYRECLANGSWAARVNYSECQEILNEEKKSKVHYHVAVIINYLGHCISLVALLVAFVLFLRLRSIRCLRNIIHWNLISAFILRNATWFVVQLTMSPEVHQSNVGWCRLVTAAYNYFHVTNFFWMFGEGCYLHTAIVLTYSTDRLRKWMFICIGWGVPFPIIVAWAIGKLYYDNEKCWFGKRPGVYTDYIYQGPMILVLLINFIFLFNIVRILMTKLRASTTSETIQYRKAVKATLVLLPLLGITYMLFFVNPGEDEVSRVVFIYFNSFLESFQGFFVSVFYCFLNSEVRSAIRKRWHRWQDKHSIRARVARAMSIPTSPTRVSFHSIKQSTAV
The assay can be described thus: SPA, displacement of [125I]-Sauvagine from membranes of CHO-K1 cells expressing the CRF1 receptor. Here is the method:
Scintillation Proximity Assay: CHO-K1 cells expressing either the CRF₁ receptor or the CRF₂ receptor were obtained from DiscoveRx. Both cell lines were cultured at 37° C. in a humidified atmosphere with 5% CO₂. The culture media used was Ham’s F-12 Nutrient Mix with Glutamax (Gibco) containing 10% fetal bovine serum, 1% Pen/Strep, 800 µg/ml G418 and 300 µg/ml Hygromycin B. Membranes were prepared by the following protocol: cultured cells were washed twice with cold Dulbecco’s phosphate buffered saline and detached using TrypLE™ (ThermoFisher) and transferred to tubes and centrifuged for 5 minutes at 1000 g at +4° C. Pellets were resuspended in ice cold homogenization buffer (20 mM Hepes pH 7.1, 5 mM MgCl₂, 1 mg/ml Bacitracin with 2 complete EDTA-free protease inhibitor cocktail tablets/50 ml (Roche)) and then homogenized for 30 seconds using a Ultra-Turrax T25 tissue homogenizer (IKA) at medium speed. The homogenate was centrifuged at 35,000 g for 15 minutes at +4° C. using an ultracentrifuge, and the supernatant was discarded, and fresh homogenization buffer was added. Homogenization of the pellet was repeated a total of three times. The final pellet was resuspended in a few millilitres of homogenization buffer and protein concentration was determined using the Bradford method. The membrane preparation was transferred to cryotubes, and the aliquots were stored at -80° C. […]

The target in assay [2] is T2, Pro-Link-tagged human CRF1 receptor (human, UniProt P34998 24-415).
T2 sequence (looked up): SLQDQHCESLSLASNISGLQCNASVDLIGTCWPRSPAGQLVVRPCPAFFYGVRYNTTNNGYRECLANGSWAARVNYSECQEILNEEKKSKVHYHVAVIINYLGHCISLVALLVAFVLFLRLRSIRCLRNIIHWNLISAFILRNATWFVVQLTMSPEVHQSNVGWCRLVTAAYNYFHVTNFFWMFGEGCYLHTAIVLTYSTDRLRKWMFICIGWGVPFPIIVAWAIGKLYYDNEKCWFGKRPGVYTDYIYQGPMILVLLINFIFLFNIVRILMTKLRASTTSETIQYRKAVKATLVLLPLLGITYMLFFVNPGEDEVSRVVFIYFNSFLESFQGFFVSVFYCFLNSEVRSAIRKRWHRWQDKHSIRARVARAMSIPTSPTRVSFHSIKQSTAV
Put plainly: cell-based or functional assay.

Assay [3] has as its target T3, Pro-Link-tagged human CRF2 receptor (human, UniProt Q13324 20-411).
T3 sequence (looked up): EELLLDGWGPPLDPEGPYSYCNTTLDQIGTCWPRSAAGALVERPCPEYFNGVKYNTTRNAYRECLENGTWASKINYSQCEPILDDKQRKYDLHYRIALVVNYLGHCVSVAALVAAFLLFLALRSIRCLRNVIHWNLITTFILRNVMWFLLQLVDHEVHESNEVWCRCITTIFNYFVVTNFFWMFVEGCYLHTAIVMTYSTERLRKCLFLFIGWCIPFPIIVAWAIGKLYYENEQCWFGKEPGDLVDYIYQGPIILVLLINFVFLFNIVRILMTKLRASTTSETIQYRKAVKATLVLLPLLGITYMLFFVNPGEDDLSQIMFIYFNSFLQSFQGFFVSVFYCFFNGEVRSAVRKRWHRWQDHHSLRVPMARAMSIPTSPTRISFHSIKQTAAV
Put plainly: cell-based or functional assay.

The target in assay [4] is T4, Human CRF1 receptor (Corticotropin-Releasing Factor receptor 1) (human), P34998.
T4 chain: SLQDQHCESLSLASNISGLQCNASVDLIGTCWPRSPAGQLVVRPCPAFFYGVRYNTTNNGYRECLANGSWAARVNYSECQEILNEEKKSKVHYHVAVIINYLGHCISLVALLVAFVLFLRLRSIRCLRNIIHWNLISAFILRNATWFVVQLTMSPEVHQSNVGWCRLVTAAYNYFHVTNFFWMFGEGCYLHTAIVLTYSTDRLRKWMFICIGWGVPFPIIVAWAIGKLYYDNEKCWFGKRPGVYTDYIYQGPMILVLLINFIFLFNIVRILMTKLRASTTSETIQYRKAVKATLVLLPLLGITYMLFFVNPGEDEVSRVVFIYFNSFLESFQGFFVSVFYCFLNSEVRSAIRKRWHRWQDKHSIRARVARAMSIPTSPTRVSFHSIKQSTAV
The assay can be described thus: SPA, displacement of [125I]-Sauvagine from membranes of CHO-K1 cells expressing the CRF1 receptor. The following applies: remark: other sources report otherwise.

Assay [5] deals with T5, Human CRF2 receptor (Corticotropin-Releasing Factor receptor 2) (human) (UniProt Q13324).
T5 sequence (looked up): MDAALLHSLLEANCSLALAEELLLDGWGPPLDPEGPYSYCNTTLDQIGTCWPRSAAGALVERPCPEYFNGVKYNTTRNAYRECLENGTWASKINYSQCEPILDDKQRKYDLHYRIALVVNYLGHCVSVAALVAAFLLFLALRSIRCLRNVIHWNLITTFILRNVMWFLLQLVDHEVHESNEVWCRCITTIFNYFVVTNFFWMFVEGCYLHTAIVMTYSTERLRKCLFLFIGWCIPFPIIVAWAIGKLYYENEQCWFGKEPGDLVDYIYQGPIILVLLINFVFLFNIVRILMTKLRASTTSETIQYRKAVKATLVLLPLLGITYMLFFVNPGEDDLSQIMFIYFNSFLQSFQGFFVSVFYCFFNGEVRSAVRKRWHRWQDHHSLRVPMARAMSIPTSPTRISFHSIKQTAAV
The assay can be described thus: SPA, displacement of [125I]-Sauvagine from membranes of CHO-K1 cells expressing the CRF2 receptor.

Regarding DNPSLSIDLTFHLLRTLLELARTQSQRERAEQNRIIFDSV-NH2 (also called human Ucn1) [Compound 1 - hUcn1 (human Urocortin 1 peptide)], in assay [1], the IC50 was determined as 0.07 nM. The “Human CRF1 receptor EC50 [nM] (beta-arrestin recruitment, PathHunter)” value (shortened to “Human CRF1 receptor EC50 [nM]”) in assay [2] worked out at 22 nM. In addition, the “Human CRF2 receptor EC50 [nM] (beta-arrestin recruitment, PathHunter)” value (from here on “Human CRF2 receptor EC50 [nM]”) in assay [3] came out at 31 nM.

B1: Compound 3: N{epsilon}-[C20 diacid-3xgGlu-2xAdo]Lys-[Glu33,Glu37]-hUcn2 (peptide)
peptide: K([AEEA-AEEA-γGlu-γGlu-γGlu-C20 diacid])IVLSLDVPIGLLQILLEQARARAAREQATTNAEILAEV-NH2
modifications: N-terminus assumed
SMILES: CC[C@H](C)[C@H](NC(=O)[C@H](CCC(=O)O)NC(=O)[C@H](C)NC(=O)[C@H](CC(N)=O)NC(=O)[C@@H](NC(=O)[C@@H](NC(=O)[C@H](C)NC(=O)[C@H](CCC(N)=O)NC(=O)[C@H](CCC(=O)O)NC(=O)[C@H](CCCNC(=N)N)NC(=O)[C@H](C)NC(=O)[C@H](C)NC(=O)[C@H](CCCNC(=N)N)NC(=O)[C@H](C)NC(=O)[C@H](CCCNC(=N)N)NC(=O)[C@H](C)NC(=O)[C@H](CCC(N)=O)NC(=O)[C@H](CCC(=O)O)NC(=O)[C@H](CC(C)C)NC(=O)[C@H](CC(C)C)NC(=O)[C@@H](NC(=O)[C@H](CCC(N)=O)NC(=O)[C@H](CC(C)C)NC(=O)[C@H](CC(C)C)NC(=O)CNC(=O)[C@@H](NC(=O)[C@@H]1CCCN1C(=O)[C@@H](NC(=O)[C@H](CC(=O)O)NC(=O)[C@H](CC(C)C)NC(=O)[C@H](CO)NC(=O)[C@H](CC(C)C)NC(=O)[C@@H](NC(=O)[C@@H](NC(=O)[C@@H](N)CCCCNC(=O)COCCOCCNC(=O)COCCOCCNC(=O)CC[C@H](NC(=O)CC[C@H](NC(=O)CC[C@H](NC(=O)CCCCCCCCCCCCCCCCCCC(=O)O)C(=O)O)C(=O)O)C(=O)O)[C@@H](C)CC)C(C)C)C(C)C)[C@@H](C)CC)[C@@H](C)CC)[C@@H](C)O)[C@@H](C)O)C(=O)N[C@@H](CC(C)C)C(=O)N[C@@H](C)C(=O)N[C@@H](CCC(=O)O)C(=O)N[C@H](C(N)=O)C(C)C
B1: the “Human CRF1 receptor EC50 [nM]” value in assay [2] is over 10000 nM. Besides, in assay [3], the “Human CRF2 receptor EC50 [nM]” value stood at 55 nM.

B2: Compound 4: N{epsilon}-[C20 diacid-3xgGlu-2xAdo]Lys-[Glu33,Glu36]-hUcn2 (peptide)
peptide: K([AEEA-AEEA-γGlu-γGlu-γGlu-C20 diacid])IVLSLDVPIGLLQILLEQARARAAREQATTNAEILERV-NH2
modifications: N-terminus assumed
SMILES: CC[C@H](C)[C@H](NC(=O)[C@H](CCC(=O)O)NC(=O)[C@H](C)NC(=O)[C@H](CC(N)=O)NC(=O)[C@@H](NC(=O)[C@@H](NC(=O)[C@H](C)NC(=O)[C@H](CCC(N)=O)NC(=O)[C@H](CCC(=O)O)NC(=O)[C@H](CCCNC(=N)N)NC(=O)[C@H](C)NC(=O)[C@H](C)NC(=O)[C@H](CCCNC(=N)N)NC(=O)[C@H](C)NC(=O)[C@H](CCCNC(=N)N)NC(=O)[C@H](C)NC(=O)[C@H](CCC(N)=O)NC(=O)[C@H](CCC(=O)O)NC(=O)[C@H](CC(C)C)NC(=O)[C@H](CC(C)C)NC(=O)[C@@H](NC(=O)[C@H](CCC(N)=O)NC(=O)[C@H](CC(C)C)NC(=O)[C@H](CC(C)C)NC(=O)CNC(=O)[C@@H](NC(=O)[C@@H]1CCCN1C(=O)[C@@H](NC(=O)[C@H](CC(=O)O)NC(=O)[C@H](CC(C)C)NC(=O)[C@H](CO)NC(=O)[C@H](CC(C)C)NC(=O)[C@@H](NC(=O)[C@@H](NC(=O)[C@@H](N)CCCCNC(=O)COCCOCCNC(=O)COCCOCCNC(=O)CC[C@H](NC(=O)CC[C@H](NC(=O)CC[C@H](NC(=O)CCCCCCCCCCCCCCCCCCC(=O)O)C(=O)O)C(=O)O)C(=O)O)[C@@H](C)CC)C(C)C)C(C)C)[C@@H](C)CC)[C@@H](C)CC)[C@@H](C)O)[C@@H](C)O)C(=O)N[C@@H](CC(C)C)C(=O)N[C@@H](CCC(=O)O)C(=O)N[C@@H](CCCNC(=N)N)C(=O)N[C@H](C(N)=O)C(C)C
On to B2, for which the “Human CRF1 receptor EC50 [nM]” value in assay [2] was over 10000 nM. Further, in assay [3], the “Human CRF2 receptor EC50 [nM]” value was determined as 42 nM.

Take IVLSLDVPIGLLQILLEQARARAAREQATTNARILARV-NH2 [Compound 2 - hUcn2 (human Urocortin 2 peptide)]: the IC50 stood at 447 nM in assay [4] and 0.58 nM in assay [5]. The “Human CRF1 receptor EC50 [nM]” value in assay [2] is over 10000 nM.
